Test results taken from PMC3741642.

Target: T1, hEndoV (FLJ35220, human endonuclease V) (Homo sapiens, UniProt Q8N8Q3 1-282)
T1 sequence: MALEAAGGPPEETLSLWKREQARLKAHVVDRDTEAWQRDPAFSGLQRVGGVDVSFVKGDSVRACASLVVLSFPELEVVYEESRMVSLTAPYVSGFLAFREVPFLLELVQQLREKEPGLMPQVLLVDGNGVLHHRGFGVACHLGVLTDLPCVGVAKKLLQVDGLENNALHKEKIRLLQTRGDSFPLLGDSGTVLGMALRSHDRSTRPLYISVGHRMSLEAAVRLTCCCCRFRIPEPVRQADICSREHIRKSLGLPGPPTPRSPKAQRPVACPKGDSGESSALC
Assay: EMSA; 5 mM CaCl2; EMSA: 0.2 nM 32P substrate, 10 mM HEPES-KOH pH 8.0, 1 mM DTT, 2% glycerol, 5 mM CaCl2, 4 °C 30 min; nondenaturing 8% PAGE

B1: dsRNA without inosine (dsRNA)
RNA 1: CUGUAUGAUGAAGAUGCUGAC
RNA 2: GUCAGCAUCUUCAUCAUACAG
Does B1 bind?
Result: binds
